Data published in the supplement of paper PMC11246515.
± gives the standard deviation of the averaged measurements.

Test: total protein half-life in vivo (active degradation + dilution); higher = more stable protein
[1] = E. coli NCM3722 delta-clpP delta-lon delta-hslV, growth: N-lim chemostat, doubling time 6 h
[2] = E. coli NCM3722 delta-clpP, growth: N-lim chemostat, doubling time 6 h
[3] = E. coli NCM3722 delta-hslV, growth: N-lim chemostat, doubling time 6 h
[4] = E. coli NCM3722 delta-lon, growth: N-lim chemostat, doubling time 6 h
[5] = E. coli NCM3722 delta-smpB, growth: N-lim chemostat, doubling time 6 h
[6] = wild type E. coli NCM3722, growth: C-lim chemostat, doubling time 3 h
[7] = wild type E. coli NCM3722, growth: C-lim chemostat, doubling time 6 h
[8] = wild type E. coli NCM3722, growth: C-lim chemostat, doubling time 12 h
[9] = wild type E. coli NCM3722, growth: N-lim chemostat, doubling time 6 h
[10] = wild type E. coli NCM3722, growth: N-lim chemostat, doubling time 12 h
[11] = wild type E. coli NCM3722, growth: P-lim chemostat, doubling time 6 h
[12] = wild type E. coli NCM3722, growth: P-lim chemostat, doubling time 12 h

| Sequence | total protein half-life in vivo [1] | total protein half-life in vivo [2] | total protein half-life in vivo [3] | total protein half-life in vivo [4] | total protein half-life in vivo [5] | total protein half-life in vivo [6] | total protein half-life in vivo [7] | total protein half-life in vivo [8] | total protein half-life in vivo [9] | total protein half-life in vivo [10] | total protein half-life in vivo [11] | total protein half-life in vivo [12] |
| --- | --- | --- | --- | --- | --- | --- | --- | --- | --- | --- | --- | --- |
| MGKEVMGKKENEMAQEKERPAGSQSLFRGLMLIEILSNYPNGCPLAHLSELAGLNKSTVHRLLQGLQSCGYVTTAPAAGSYRLTTKFIAVGQKALSSLNIIHIAAPHLEALNIATGETINFSSREDDHAILIYKLEPTTGMLRTRAYIGQHMPLYCSAMGKIYMAFGHPDYVKSYWESHQHEIQPLTRNTITELPAMFDELAHIRESGAAMDREENELGVSCIAVPVFDIHGRVPYAVSISLSTSRLKQVGEKNLLKPLRETAQAISNELGFTVRDDLGAIT | 6.16 ± 0.066 h | 6.38 ± 0.83 h | 5.57 ± 0.36 h | 5.84 ± 0.19 h | 5.29 ± 0.3 h | 2.91 ± 0.036 h | 6.07 ± 0.19 h | 12.6 ± 1.2 h | 5.86 ± 0.21 h | 9.57 ± 0.79 h | 6.38 ± 1.8 h | 11.2 ± 2.3 h |
| MSLFHLIAPSGYCIKQHAALRGIQRLTDAGHQVNNVEVIARRCERFAGTETERLEDLNSLARLTTPNTIVLAVRGGYGASRLLADIDWQALVARQQHDPLLICGHSDFTAIQCGLLAHGNVITFSGPMLVANFGADELNAFTEHHFWLALRNETFTIEWQGEGPTCRAEGTLWGGNLAMLISLIGTPWMPKIENGILVLEDINEHPFRVERMLLQLYHAGILPRQKAIILGSFSGSTPNDYDAGYNLESVYAFLRSRLSIPLITGLDFGHEQRTVTLPLGAHAILNNTREGTQLTISGHPVLKM | 4.96 ± 0.9 h | 3.76 ± 0.25 h | 4.05 ± 0.72 h | 4.07 ± 0.22 h | 3.65 ± 0.53 h | 3.13 ± 0.084 h | 5 ± 0.86 h | 9.85 ± 0.41 h | 3.693 ± 0.016 h | 6.99 ± 0.87 h | 6.058 ± 0.043 h | 10.8 ± 0.56 h |
| MSDTKRNTIGKFGLLSLTFAAVYSFNNVINNNIELGLASAPMFFLATIFYFIPFCLIIAEFVSLNKNSEAGVYAWVKSSLGGRWAFITAYTYWFVNLFFFTSLLPRVIAYASYAFLGYEYIMTPVATTIISMVLFAFSTWVSTNGAKMLGPITSVTSTLMLLLTLSYILLAGTALVGGVQPADAITVDAMIPNFNWAFLGVTTWIFMAAGGAESVAVYVNDVKGGSKSFVKVIILAGIFIGVLYSVSSVLINVFVSSKELKFTGGSVQVFHGMAAYFGLPEALMNRFVGLVSFTAMFGSLLMWTATPVKIFFSEIPEGIFGKKTVELNENGVPARAAWIQFLIVIPLMIIPMLGSNTVQDLMNTIINMTAAASMLPPLFIMLAYLNLRAKLDHLPRDFRMGSRRTGIIVVSMLIAIFAVGFVASTFPTGANILTIIFYNVGGIVIFLGFAWWKYSKYIKGLTAEERHIEATPASNVD |  |  |  |  |  |  | 3.83 h |  |  |  |  |  |
| MSLVCSVIFIHHAFNANILDKDYAFSDGEILMVDNAVRTHFEPYERHFKEIGFTENTIKKYLQCTNIQTVTVPVPAKFLRASNVPTGLLNEMIAYLNSEERNHHNFSELLLFSCLSIFAACKGFITLLTNGVLSVSGKVRNIVNMKPAHPWKLKDICDCLYISESLLKKKLKQEQTTFSQILLDARMQHAKNLIRVEGSVNKIAEQCGYASTSYFIYAFRKHFGNSPKRVSKEYRCQSHTGMNTGNTMNALAI | 4.92 h |  |  |  |  |  |  |  |  |  |  |  |
| MERFDAIIIGAGAAGMFCSALAGQAGRRVLLIDNGKKPGRKILMSGGGRCNFTNLYVEPGAYLSQNPHFCKSALARFTQWDFIDLVNKHGIAWHEKTLGQLFCDDSAQQIVDMLVDECEKGNVTFRLRSEVLSVAKDETGFTLDLNGMTVGCEKLVIATGGLSMPGLGASPFGYKIAEQFGLNVLPTRAGLVPFTLHKPLLEELQVLAGVAVPSVITAENGTVFRENLLFTHRGLSGPAVLQISSYWQPGEFVSINLLPDVDLETFLNEQRNAHPNQSLKNTLAVHLPKRLVERLQQLGQIPDVSLKQLNVRDQQALISTLTDWRVQPNGTEGYRTAEVTLGGVDTNELSSRTMEARKVPGLYFIGEVMDVTGWLGGYNFQWAWSSAWACAQDLIAAKSS | 5.02 ± 0.28 h | 5.67 ± 1.1 h |  | 5.81 ± 0.69 h | 4.72 ± 0.1 h | 3.282 ± 0.019 h | 6.42 ± 0.6 h | 12.3 ± 1.9 h | 5.15 ± 0.21 h | 9.59 ± 0.85 h | 5.88 ± 0.17 h | 10.8 ± 1.7 h |
| MDLIYFLIDFILHIDVHLAELVAEYGVWVYAILFLILFCETGLVVTPFLPGDSLLFVAGALASLETNDLNVHMMVVLMLIAAIVGDAVNYTIGRLFGEKLFSNPNSKIFRRSYLDKTHQFYEKHGGKTIILARFVPIVRTFAPFVAGMGHMSYRHFAAYNVIGALLWVLLFTYAGYFFGTIPMVQDNLKLLIVGIIVVSILPGVIEIIRHKRAAARAAK [P0ABP6] | 3.68 ± 0.076 h | 3.87 h | 3.74 h | 3.148 ± 0.016 h | 4.71 ± 0.57 h | 2.65 ± 0.21 h | 5.03 ± 0.88 h | 9.21 ± 3.2 h | 3.7 ± 0.13 h | 6.2 ± 0.26 h |  | 7.57 ± 1.5 h |
